T1: human BCMA (human, UniProt Q02223 1-184)
T1 sequence (looked up): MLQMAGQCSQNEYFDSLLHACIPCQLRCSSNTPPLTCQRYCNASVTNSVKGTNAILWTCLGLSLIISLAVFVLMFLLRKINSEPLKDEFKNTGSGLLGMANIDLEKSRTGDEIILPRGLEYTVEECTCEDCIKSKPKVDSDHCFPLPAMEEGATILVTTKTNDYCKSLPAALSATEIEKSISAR

T2: biotinylated human BCMA-Fc, Avitag recombinant protein (ACRO Biosystems, #BC7-H82F0) (human, UniProt Q02223 1-54, biotinylated)
T2 construct: extracellular domain; Bought protein; also called human BCMA protein; recombinant human BCMA-ECD-Fc; not shown: Fc of the bought fusion protein; Avitag
T2 sequence (looked up): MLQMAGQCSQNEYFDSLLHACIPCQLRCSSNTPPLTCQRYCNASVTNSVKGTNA

B1: PR000401 (bispecific antibody, human IgG1, kappa, L234A L235A)
light: DIQMTQSPSTLSASVGDRVTVTCRASQSIYIWLAWYQQKPGKAPNLLIYKASSLETGVPSRFSGSGSGTEFTLTISSLQPDDFATYYCQQYYGSSRTFGQGTKVEIKRTVAAPSVFIFPPSDEQLKSGTASVVCLLNNFYPREAKVQWKVDNALQSGNSQESVTEQDSKDSTYSLSSTLTLSKADYEKHKVYACEVTHQGLSSPVTKSFNRGEC
chain: EVQLVESGGGLVQPGGSLRLSCAASGFTFSSYWMSWVRQAPGKGLEWVANIKQEGSEKYYVDSVKGRFTISRDNAKNSLYLQMNSLRAEDTAVYYCARDRAVAGAFDIWGQGTMVTVSSASTKGPSVFPLAPSSKSTSGGTAALGCLVKDYFPEPVTVSWNSGALTSGVHTFPAVLQSSGLYSLSSVVTVPSSSLGTQTYICNVNHKPSNTKVDKKVEPKSCDKTHTCPPCPAPEAAGGPSVFLFPPKPKDTLMISRTPEVTCVVVDVSHEDPEVKFNWYVDGVEVHNAKTKPREEQYNSTYRVVSVLTVLHQDWLNGKEYKCKVSNKALGAPIEKTISKAKGQPREPQVYTLPPSREEMTKNQVSLTCLVKGFYPSDIAVEWESNGQPENNYKTTPPVLDSDGSFFLYSKLTVDKSRWQQGNVFSCSVMHEALHNHYTQKSLSLSPGKLEPKSSDKTHTPPPPPRTEVQLVESGGGLIQPGGSLRLSCAVSGFTVSKNYMSWVRQAPGKGLEWVSVVYSGGSKTYADSVKGRFTISRDNSKNTLYLQMNSLRAEDTAVYYCARAVPHSPSSFDIWGQGTMVTVSS
notes: PD-L1×CTLA4, structure 5
B2: PR000402 (bispecific antibody, human IgG1, kappa, L234A L235A)
light: B1 light
chain: EVQLVESGGGLVQPGGSLRLSCAASGFTFSSYWMSWVRQAPGKGLEWVANIKQEGSEKYYVDSVKGRFTISRDNAKNSLYLQMNSLRAEDTAVYYCARDRAVAGAFDIWGQGTMVTVSSASTKGPSVFPLAPSSKSTSGGTAALGCLVKDYFPEPVTVSWNSGALTSGVHTFPAVLQSSGLYSLSSVVTVPSSSLGTQTYICNVNHKPSNTKVDKKVEPKSCDKTHTCPPCPAPEAAGGPSVFLFPPKPKDTLMISRTPEVTCVVVDVSHEDPEVKFNWYVDGVEVHNAKTKPREEQYNSTYRVVSVLTVLHQDWLNGKEYKCKVSNKALGAPIEKTISKAKGQPREPQVYTLPPSREEMTKNQVSLTCLVKGFYPSDIAVEWESNGQPENNYKTTPPVLDSDGSFFLYSKLTVDKSRWQQGNVFSCSVMHEALHNHYTQKSLSLSPGKLGGGGSGGGGSGGGGSRTEVQLVESGGGLIQPGGSLRLSCAVSGFTVSKNYMSWVRQAPGKGLEWVSVVYSGGSKTYADSVKGRFTISRDNSKNTLYLQMNSLRAEDTAVYYCARAVPHSPSSFDIWGQGTMVTVSS
notes: PD-L1×CTLA4, structure 5
B3: PR000265, anti-PD-L1 91G3H5H3(D54E), hIgG1(N297A) (antibody)
heavy: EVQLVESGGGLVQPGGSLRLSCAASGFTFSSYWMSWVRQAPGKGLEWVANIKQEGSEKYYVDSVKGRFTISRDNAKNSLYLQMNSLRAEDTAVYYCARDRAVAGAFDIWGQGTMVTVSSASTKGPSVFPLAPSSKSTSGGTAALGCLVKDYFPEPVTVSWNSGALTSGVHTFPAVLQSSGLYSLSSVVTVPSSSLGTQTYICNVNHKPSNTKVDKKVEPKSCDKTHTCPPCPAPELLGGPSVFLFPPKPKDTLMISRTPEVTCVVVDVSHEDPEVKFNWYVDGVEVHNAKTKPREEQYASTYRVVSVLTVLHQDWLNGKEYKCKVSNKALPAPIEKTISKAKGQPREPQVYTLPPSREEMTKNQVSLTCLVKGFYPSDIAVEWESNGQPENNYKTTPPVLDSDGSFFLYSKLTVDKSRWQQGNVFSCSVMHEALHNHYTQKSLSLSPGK
light: B1 light
B4: PR000274, anti-BCMA monoclonal antibody CA8-J6M0 (antibody, human IgG1, kappa, V domains shown)
VH: QVQLVQSGAEVKKPGSSVKVSCKASGGTFSNYWMHWVRQAPGQGLEWMGATYRGHSDTYYNQKFKGRVTITADKSTSTAYMELSSLRSEDTAVYYCARGAIYDGYDVLDNWGQGTLVTVSS
VL: DIQMTQSPSSLSASVGDRVTITCSASQDISNYLNWYQQKPGKAPKLLIYYTSNLHSGVPSRFSGSGSGTDFTLTISSLQPEDFATYYCQQYRKLPWTFGQGTKLEIKR
notes: Control antibody; also called Positive control 1; CA8-J6M0 hIgG1
B5: PR000943, anti-BCMA HCAb antibody, clone 1005P16A10 (antibody, human IgG1, V domains shown)
VH: EVQLVETGGGLIQPGGSLRLSCAASGFPVSSNYMSWVRQAPGKGLEWVSVIFSGGRTYYADSVKGRFTISRDNSKNTLYLQMNSLRAEDTAVYYCARRNWIDGRDAFDIWGQGTMVTVSS
notes: Heavy-chain-only antibody (HCAb), human IgG1 Fc, no light chain
B6: PR001046, anti-BCMA HCAb antibody, clone 1005P63B7 (antibody, human IgG1, V domains shown)
VH: EVQLVETGGGLIQPGGSLRLSCAASGFTVSDNYMTWVRQAPGKGLEWVSVIFSGGNTYYADSVKGRFTISRDNAKNTLYLQMNSLRAEDTALYYCARRNYDDTRGTDVFDIWGQGTMVTVSS
notes: as for B5
B7: PR001574 (bispecific antibody, human IgG1, kappa)
chain: EVQLVESGGGLIQPGGSLRLSCAVSGFTVSKNYMSWVRQAPGKGLEWVSVVYSGGSKTYADSVKGRFTISRDNSKNTLYLQMNSLRAEDTAVYYCARAVPHSPSSFDIWGQGTMVTVSSKLEPKSSDKTHTPPPPPRTDIQMTQSPSTLSASVGDRVTVTCRASQSIYIWLAWYQQKPGKAPNLLIYKASSLETGVPSRFSGSGSGTEFTLTISSLQPDDFATYYCQQYYGSSRTFGQGTKVEIKRTVAAPSVFIFPPSDEQLKSGTASVVCLLNNFYPREAKVQWKVDNALQSGNSQESVTEQDSKDSTYSLSSTLTLSKADYEKHKVYACEVTHQGLSSPVTKSFNRGEC
heavy: not shown
notes: PD-L1×CTLA4, structure 4
B8: PR001575 (bispecific antibody, human IgG1, kappa)
chain 1: B7 chain
chain 2: not shown
notes: PD-L1×CTLA4, structure 9
B9: PR001577 (bispecific antibody, human IgG1, kappa)
chain: B7 chain
heavy: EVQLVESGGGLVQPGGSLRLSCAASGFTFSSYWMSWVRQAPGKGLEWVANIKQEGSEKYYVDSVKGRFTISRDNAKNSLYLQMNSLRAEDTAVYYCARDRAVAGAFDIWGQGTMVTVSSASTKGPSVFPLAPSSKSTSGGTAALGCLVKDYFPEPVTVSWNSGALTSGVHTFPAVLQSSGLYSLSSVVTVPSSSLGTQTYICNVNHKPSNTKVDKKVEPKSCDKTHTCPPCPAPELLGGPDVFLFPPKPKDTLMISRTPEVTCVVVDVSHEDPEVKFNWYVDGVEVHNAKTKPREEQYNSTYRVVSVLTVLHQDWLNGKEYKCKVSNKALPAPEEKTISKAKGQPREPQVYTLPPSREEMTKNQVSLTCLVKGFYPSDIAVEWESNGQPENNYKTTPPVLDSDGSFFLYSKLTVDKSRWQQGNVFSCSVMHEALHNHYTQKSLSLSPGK
notes: PD-L1×CTLA4, structure 4, Fc S239D, I332E
B10: PR001572 (bispecific antibody, human IgG1, kappa)
chain 1: B7 chain
chain 2: not shown
notes: PD-L1×CTLA4, structure 9 2×VH-IgG
B11: PR001609 (bispecific antibody, human IgG1, kappa)
light: B1 light
heavy: not shown
chain: EVQLVESGGGLIQPGGSLRLSCAVSGFTVSKNYMSWVRQAPGKGLEWVSVVYSGGSKTYADSVKGRFTISRDNSKNTLYLQMNSLRAEDTAVYYCARAVPHSPSSFDIWGQGTMVTVSSEPKSSDKTHTCPPCPAPELLGGPSVFLFPPKPKDTLMISRTPEVTCVVVDVSHEDPEVKFNWYVDGVEVHNAKTKPREEQYNSTYRVVSVLTVLHQDWLNGKEYKCKVSNKALPAPIEKTISKAKGQPREPQVCTLPPSREEMTKNQVSLSCAVKGFYPSDIAVEWESNGQPENNYKTTPPVLDSDGSFFLVSKLTVDKSRWQQGNVFSCSVMHEALHNHYTQKSLSLSPGK
notes: PD-L1×CTLA4, structure 11 Fab-Fc-VH, knob/hole

Target: T3, human PD-L1 on cells (CHO-K1/hPDL1; MDA-MB-231) (human, UniProt Q9NZQ7 19-290)
T3 construct: whole, on cells
T3 sequence (Q9NZQ7 19-290): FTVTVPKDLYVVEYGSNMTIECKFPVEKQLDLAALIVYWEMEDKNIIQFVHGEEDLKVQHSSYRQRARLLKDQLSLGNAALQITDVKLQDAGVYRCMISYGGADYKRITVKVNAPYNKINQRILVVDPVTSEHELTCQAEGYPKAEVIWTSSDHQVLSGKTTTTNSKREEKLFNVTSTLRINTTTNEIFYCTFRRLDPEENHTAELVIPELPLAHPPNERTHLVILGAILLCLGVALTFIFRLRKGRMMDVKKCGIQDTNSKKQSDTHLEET
Assay: FACS, MDA-MB-231 cells

Row | EC50 | Maximum MFI | Binder
1 | 0.288 nM | 994 MFI | B1
2 | 0.259 nM | 841 MFI | B2
3 | 0.163 nM | 958 MFI | B3

Target: T1, human BCMA
Assay: cell-based or functional assay

Row | Binder | EC50 (nM), target cell killing mediated by antibody internalization (HEK293T/hBCMA cells, a-hFc-MMAF) | Maximum killing rate (%), target cell killing mediated by antibody internalization (HEK293T/hBCMA cells, a-hFc-MMAF)
4 | B4 | 2.18 nM | 77.2%
5 | B5 | 0.492 nM | 78.7%
6 | B6 | 0.571 nM | 71.2%

Target: T4, human CTLA4 on cells (CHO-K1/hCTLA4; HEK293/hCTLA4; 293F-hCTLA4) (human, UniProt P16410 36-223)
T4 construct: whole, on cells
T4 sequence (P16410 36-223): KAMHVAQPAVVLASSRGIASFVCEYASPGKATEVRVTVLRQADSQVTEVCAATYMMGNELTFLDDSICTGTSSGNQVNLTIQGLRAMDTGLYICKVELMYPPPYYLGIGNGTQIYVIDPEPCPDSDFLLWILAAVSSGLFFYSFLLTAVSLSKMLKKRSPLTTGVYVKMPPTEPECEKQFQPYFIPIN
Assay: FACS, HEK293/hCTLA4 cells

Row | EC50 | Maximum MFI | Binder
7 | 5.17 nM | 1910 MFI | B1
8 | 2.4 nM | 1760 MFI | B2

Target: T1, human BCMA
Assay: flow cytometry, NCI-H929 cells

Row | EC50 | Maximum MFI | Binder
9 | 10.8 nM | 125000 | B4
10 | 4.8 nM | 166000 | B5
11 | 1.53 nM | 133000 | B6

Target: T4, human CTLA4 on cells (CHO-K1/hCTLA4; …)
Assay: FACS, CHO-K1/hCTLA4 cells (Test 2)

Row | EC50 | Maximum MFI | Binder
12 | 12 nM | 677 MFI | B7
13 | 5.08 nM | 415 MFI | B8
14 | 8.52 nM | 585 MFI | B9
15 | 2.91 nM | 434 MFI | B10
16 |  | 355 MFI | B11

Target: T1, human BCMA
Assay: flow cytometry, HEK293T/hBCMA cells

Row | EC50 | Maximum MFI | Binder
17 | 4.08 nM | 86500 | B4
18 | 0.153 nM | 70000 | B5
19 | 0.213 nM | 63400 | B6

Target: T3, human PD-L1 on cells (CHO-K1/hPDL1; …)
Assay: FACS, CHO-K1/hPDL1 cells (Experiment 2)

Row | EC50 | Maximum MFI | Binder
20 | 0.93 nM | 6710 MFI | B7
21 | 2.41 nM | 5880 MFI | B8
22 | 0.96 nM | 6610 MFI | B9
23 | 1.07 nM | 5830 MFI | B10
24 | 1.51 nM | 11200 MFI | B11

Target: T5, cynomolgus monkey BCMA (cynomolgus monkey)
T5 construct: whole, on cells; also called cyno BCMA; HEK293T/cyno BCMA cells
Assay: flow cytometry, HEK293T/cyno BCMA cells

Row | EC50 | Maximum MFI | Binder
25 | 4.56 nM | 116000 | B4
26 | 0.329 nM | 64000 | B5
27 | 0.564 nM | 67700 | B6

Target: T3, human PD-L1 on cells (CHO-K1/hPDL1; …)
Assay: competition FACS: biotinylated PD-1 to CHO-K1/hPDL1 cells

Row | fold poorer IC50 than the parent monoclonal antibody | Binder
28 | 2 to 3 fold | B7
29 | 4 to 6 fold | B8
30 | 2 to 3 fold | B9
31 | 4 to 6 fold | B10
32 | 4 to 5 fold | B11

Target: T4, human CTLA4 on cells (CHO-K1/hCTLA4; …)
Assay: competition FACS: biotinylated B7-1-Fc to CHO-K1/hCTLA4 cells (Test 2)

Row | IC50 | Maximum inhibition rate (%) | Binder
33 | 4.49 nM | 99.8% | B7
34 | 3.79 nM | 100% | B8
35 | 4.88 nM | 99.7% | B9
36 | 2.98 nM | 100% | B10
37 | 98.3 nM | 95% | B11

Target: T3, human PD-L1 on cells (CHO-K1/hPDL1; …)
Assay: competition FACS: biotinylated PD-1 to CHO-K1/hPDL1 cells (Experiment 2)

Row | IC50 | Maximum inhibition rate (%) | Binder
38 | 0.88 nM | 81.1% | B7
39 | 1.74 nM | 81.7% | B8
40 | 0.61 nM | 81% | B9
41 | 1.4 nM | 80.7% | B10
42 | 1.12 nM | 81.6% | B11

Target: T2, biotinylated human BCMA-Fc, Avitag …
Assay: BLI (Octet Red96e), biotinylated BCMA-Fc on SA sensor, antibody in solution, 1:1 global fit

Row | Kd | koff | kon | Binder
43 | 0.162 nM | 1.93e-05 s⁻¹ | 119000 M⁻¹ s⁻¹ | B5
44 | 0.0253 nM | 1.07e-05 s⁻¹ | 423000 M⁻¹ s⁻¹ | B6

From patent US20230322953A1 (HARBOUR BIOMED SHANGHAI, published 2023)
